Results taken from US20160287696A1, “PAN POLLEN IMMUNOGENS AND METHODS AND USES FOR IMMUNE RESPONSE MODULATION” (LA JOLLA INSTITUTE FOR ALLERGY AND IMMUNOLOGY, priority 2013, published 2016).

Columns and labels:
[1] = tested on: cultured PBMCs of the allergic donors; test: ELISPOT of IL-5 or IFNg production by cultured PBMCs of TG allergic donors in response to peptide; type: cell-based, human; conditions: for No of PG+ & th+ peptides per NTGA / No of PP & Th+ peptides per NTGA: Table 6; for No of PG+ & th+ peptides per NTGA: PG+ peptides recognized by T cells of grass allergic donors (n=20); for No of PP & Th+ peptides per NTGA: PP peptides recognized by T cells of grass allergic donors (n=20); for # Th+: Table 7, peptides per NTGA recognized by T cells of grass allergic donors (n=20); for NTGA's containing at least one T cell epitope, Th+ (Col 2): NTGA number given = criterion met, TG allergic donors n=20
How it was run: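 PBMCs from Timothy grass-allergic donors (n=20), expanded in vitro with TG extract (50 μg/mL) or peptide pool, then plated at 1×10^5 cells/well with single 15-mer peptide (10 μg/mL). IL-5 or IFNg measured by ELISPOT; peptide response positive at ≥20 SFCs/10^6 PBMCs, P .05, stimulation index ≥2; value is number of responding donors.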

splenocytes = test: Prophylactic SLIT tolerance induction in mice, splenocyte proliferation; type: in vivo, BALB/c mice; conditions: prophylactic SLIT two weeks, FIG. 3A / 3C
From the text: Then the tolerance induction of NTGA 86/51 was investigated in a prophylactic mice model using sublingual administration (FIG. 3)
The ability of NTGA 86/51 and NTGA 6 to induce prophylactic tolerance was investigated by SLIT treating naive BALB/c mice with NTGA 86/51 or NTGA 6 for two weeks (Monday-Friday) followed by one Phl p extract sensitization or sensitization to the immunogen itself (NTGA 86/51 or NTGA 6) as described above. Eleven days after the sensitization, splenocytes were harvested and stimulated in vitro with NTGA 86/51 as well as Phl p extract.

Molecule | No of PG+ & th+ peptides per NTGA [1] | No of PP & Th+ peptides per NTGA [1] | # Th+ [1] | tolerance towards the immunogen itself (proliferation of splenocytes vs buffer (sham) treated mice) (splenocytes) | immune reactivity (SFC counts in ELISPOT) of highly conserved PG+ peptides derived from the NTGA [1] | NTGA's containing at least one T cell epitope, Th+ (Col 2) [1] | T cell reactivity of sequences contained in the protein ([1]; among top pan-pollen NTGA's ranked by number of PP peptides) | PG+ peptides recognized by grass allergic donors ([1]; n=20 grass allergic donors, PG+ peptides of the NTGA)
NTGA 19: Phl p wild type sequence, Table 2 (protein, Phleum Pratense) GVVATTDAVEACTGVNVAVMVGGFPRKEGMERKDVMSKNVSIYKSQASALEAHAAPNCKVLVVANPANTNALILKEFAPSIPEKNISCLTRLDHNRALGQVSERLNVQVSDVKNVLIWGNHSSSQYPDVNHATVKTSSGEKPVRELVQDDEWLNGPFIATVQQRGAAIIKARKLSSALSAASSACDHIRDWVLGTPEGTFVSMGVYSDGSYGVPAGLIYSFPVTCSGGEWTIVQGLPIDEFSRKKMDATAQELSEEKALAYSCL | 0 | 0 | 0 | – | – | – | – | –
NTGA 8: Phl p wild type sequence, Table 2 (protein, Phleum Pratense) FEGCLAKSYKSEKSDKSATYDYSANIECEKEPPKPLYGGGILTGAEAPAPVSAGGKKLLMAKSKSAPAKGSTLKVELEKDTHYTLSAWLQLSKSTGDVKAILVTPDGNFNTAGMLVVQSGCWTMLKGGATSFAAGKGELFFETNVTAELMVDSMSLQPFSFEEWKSHRHESIAKERKKKVKITVHGSDGKVLPDAELSLERVAKGFPLGNAMTKEILDIPEYEKWFTSRFTVATMENEMKWYSTEYDQNQELYEIPDKMLALAEKYNISVRGHNVFWDDQSKQMDWVSKLSAPQLKKAMEKRMKNVVSRYAGKLIHWDVLNENLHYSFFEDKLGKDASAEVFKEVAKLDDKPILFMNEYNTIEEPNDAAPLPTKYLAKLKQIQSYPGNSKLKYGIGLESHFDTPNIPYVRGSLDTLAQAKVPIWLTEIDVKKGPKQVEYLEEVMREGFAHPGVKGIVLWGAWHAKECYVMCLTDKNFKNLPVGDVVDKLITEWKAVPEDAKTDDKGVFEAELFHGEYNVTVKHKS | – | – | 0 | – | – | – | – | –
NTGA 87: Phl p wild type sequence, Table 2 (protein, Phleum Pratense) MAVKVYVVYYSMYGHVGKLAEEIKKGASSVEGVEVKVWQVPEILSEEVLGKMGAPPKTDVPIISPQELAEADGILFGFPTRFGMMASQMKAFFDATGGLWREQSLAGKPAGVFFSTGTQGGGQETTPLTAVTQLTHHGMVFVPVGYTFGAKMFDMEKVQGGSPYGAGTFAGDGSRWPSEMELEHAFHQGKYFAGIAKKLKGS | 0 | 0 | 0 | – | – | – | – | –
NTGA 6: Phl p wild type sequence, Table 2 (protein, Phleum Pratense) MADEKLAKLREAVAGLPQISDNEKSGFISLVSRYLSGEEEHIEWPKIHTPTDEVVVPYDTVDAPPEDLEATKALLDKLAVLKLNGGLGTTMGCTGPKSVIEVRNGFTFLDLIVLQIESLNKKYGSNVPLLLMNSFNTHEDTLKIVEKYANSSIDIHTFNQSQYPRVVADEFLPWPSKGKTDKDGWYPPGHGDIFPSLMNSGKLDLLLSQGKEYVFIANSDNLGAIVDMKILNHLIHKQNEYCMEVTPKTLADVKGGTLISYEGRVQLLEIAQVPDAHVDEFKSIEKFKIFNTNNLWVNLKAIKRLVEADALKMEIIPNPKEVDGVKVLQLETAAGAAIRFFDHAIGINVPRSRFLPVKATSDLQLVQSDLYTLVDGFVTRNSARTDPSNPSIELGPEFKKVGSFLGRFKSIPSIVELDSLKVSGDVWFGSGIVLKGKVTITAKPGVKLEIPDGAVLENKDINGAEDL | 22 | 14 | 9 | capable of inducing tolerance towards itself | high immune reactivity | 6 | highly T cell reactive sequences | two
NTGA 13: Phl p wild type sequence, Table 2 (protein, Phleum Pratense) MDEEYDVIVLGTGLKECILSGLLSVDGLKVLHMDRNDYYGGESTSLNLTKIWKRFKGSEATPDHLGVSKEYNVDMVPKFMMANGALVRVLIRTSVTKYLNFKAVDGSFVYNNGKIHKVPATDVEALKSNLMGLFEKRRARKFFIYVQDYEEEDPKSHEGLDLHKVTTREVISKYGLEDDTVDFIGHALALHRDDNYLDEPAIDTVKRMKLYAESLARFQGGSPYIYPLYGLGELPQAFARLSAVYGGTYMLNKPECKVEFDESGKAFGVTSEGETAKCKKVVCDPSYLPDKVTKVGRVARAICIMKHPIPDTKDSHSVQIILPKKQLKRKSDMYVFCCSYAHNVAPKGKFIAFVSTEAETDKPEIELKPGIDLLGPVEETFFDIYDRYEPANAPEEDNCFVTNSYDATTHFETTVKDVLALYSKITGKELDLSVDLNAASAGESE | 0 | 0 | 0 | – | – | – | – | –
NTGA 39/59: Phl p wild type full length sequence from which PG+ peptides of NTGA's 39 and 59 derive (protein, Phleum Pratense) MAPRKFFVGGNWKCNGASDDVKKIVTVLNEAEVPSEDAVEVVVSPPFVFLQQAKALLRPDFAVAAQNCWVRKGGAFTGEISAEMLVNLQVPWVILGHSERRALLSESNDFVADKVAYALAQGLKVIACIGETLEQREAGTTMEVVAAQTKAIAEKISDWTNVVLAYEPVWAIGTGKVASRAQAQEVHDGLRKWLHANVGPAVAESTRIIYGGSVNGANCKELAAQPDLDGFLVGGASLKPEFVDIIKSATVKSSS | – | – | – | – | – | 39/59 | – | –
NTGA 52: Phl p wild type sequence, Table 2 (protein, Phleum Pratense) MDACRLLLLLLLGLLGLLAPLASAQLSREFYKASCPDAEKIVAAVIEKKLKEDPGTAAGLLRLLFHDCFANGCDASILIDPLSNQSAEKEAGPNISVRGFEVIDDIKKELEAKCPKTVSCADIVALGTRDAVRISGGPAYEVPTGRRDSLVSNREEADNNLPGPDIPIPKLTSEFLSRGFTPEEMVVLLAGGHSIGKVRCIFIEPDATPMDPGYQASISKLCDGPNRDTGFVNMDEHNPNVIDSSYFANVLAKKMPLTVDRLLGLDSKTTPIIKNMLNKPNDFMPTFAKAMEKLSVLKVITGKDG | – | – | 1 | – | – | – | – | –
NTGA 3: Phl p wild type sequence, Table 2 (protein, Phleum Pratense) MDDHKEHKEKEHTGGNPEVNEEEEEDEEAKRAVLLGPQVPLKEQLELDKDDESLRRWKEQLLGQVDTEQLGETAEPEVKVVDLTILSPDRPDLVLPIPFVADEKGYAFALKDGSTYSFRFSFIVSNNIVSGLKYTNTVWKTGVRVENQKMMLGTFSPQPEPYIYVGEEETTPAGIFARGSYSAKLKFVDDDGKVYLEMSYYFEIRKDWPTGQ | 0 | 0 | 0 | – | – | – | – | –
NTGA 73: Phl p wild type sequence, Table 2 (protein, Phleum Pratense) MSSAKQVLEPAFQGAGQKPGTEIWRIENFNPVPLPKSDYGKFYCGDSYIVLQTTCNKGGAYLFDIHFWIGKDSSQDEAGTSAIKTVELDTMLGGRAVQHREPQGYESDKFLSYFKPCIIPLEGGFASGFKTPEEEKFETRLYICKGKRAIRVKEVPFARSSLNHDDVFILDTEKKIYQFNGANSNIQERAKALEVIQHLKDKYHEGVCDVAIVDDGKLQAESDSGEFWVVFGGFAPIGKKTVSDDDVILETSPTKLYSINNGKLKLEDIVLTKSILENTKCFLLDCGSELFVWVGRVTQVDDRKAASAAVEEFIVKQNRPKTTRVTQVIQGYENHTFKSLFESWPVSSTGNASTEEGRGKVAALLKKKGDVKGASKNSTPVNEEVPPLLEGSGKLEVWCVDGSAKTALPKEDLGKFHSGDCYIVLYTYHSGEKREEFYLTYWIGKDSVLEDQHMALQIATTIWNSMKGRPVLGRIYQGKEPPQFIALFQPMVILKGGISSGYKKSIEENGLKDETYSGTGIALVHIHGTSIHNNKTLQVDAVSISLSSTDCFVLQSGNSMFTWIGNTSSYEQQQWAAKVAEFLKPGASVKHCKEGTESSAFWSALGGKQNYTSKNATQDVLREPHLYTFSFRNGKLEVTEVFNFSQDDLLTEDVMILDTHAEVFVWMGQCVDTKEKQTAFETGQKYVEHAVNFEGLSPDVPLYKVSEGNEPCFFRTYFSWDNTRSVIHGNSFQKKLSLLFGMRSESGSKGSGDGGPTQRASALAALSSAFNPSSQDKQSNDRPKSSGDGGPTQRASALAALSSSLNPSSKPKSPHSQSRSGQGSQRAAAVAALSNVLTAEGSTLSPRNDAEKTELAPSEFHTDQDAPGDEVPSEGERTEPDVSQEETANENGGETTFSYDRLISKSTDPVRGIDYKRRETYLSDSEFETVFGVTKEEFYQQPRWKQELQKRKADLF | 0 | 0 | 0 | – | – | – | – | –
